B1: NSD3Tr: portion of NSD3 present in NSD3-NUT, amino acids 1-569 of NSD3, HA- or BioTAP-tagged, inducibly expressed (protein)
chain: MDFSFSFMQGIMGNTIQQPPQLIDSANIRQEDAFDNNSDIAEDGGQTPYEATLQQGFQYPATTEDLPPLTNGYPSSISVYETQTKYQSYNQYPNGSANGFGAVRNFSPTDYYHSEIPNTRPHEILEKPSPPQPPPPPSVPQTVIPKKTGSPEIKLKITKTIQNGRELFESSLCGDLLNEVQASEHTKSKHESRKEKRKKSNKHDSSRSEERKSHKIPKLEPEEQNRPNERVDTVSEKPREEPVLKEEAPVQPILSSVPTTEVSTGVKFQVGDLVWSKVGTYPWWPCMVSSDPQLEVHTKINTRGAREYHVQFFSNQPERAWVHEKRVREYKGHKQYEELLAEATKQASNHSEKQKIRKPRPQRERAQWDIGIAHAEKALKMTREERIEQYTFIYIDKQPEEALSQAKKSVASKTEVKKTRRPRSVLNTQPEQTNAGEVASSLSSTEIRRHSQRRHTSAEEEEPPPVKIAWKTAAARKSLPASITMHKGSLDLQKCNMSPVVKIEQVFALQNATGDGKFIDQFVYSTKGIGNKTEISVRGQDRLIISTPNQRNEKPTQSVSSPEATSGST
modifications: left off: large carriers; small tags and cut ends
notes: portion of NSD3 present in NSD3-NUT, amino acids 1-569 of NSD3, HA- or BioTAP-tagged, inducibly expressed
B2: ET domain: BRD4 ET domain containing fragment (BRD4 444-722) with N-terminal SV40 NLS, FLAG-tagged, tet-inducibly expressed (protein)
chain: KLQDVFEMRFAKMPDEPEEPVVAVSSPAVPPPTKVVAPPSSSDSSSDSSSDSDSSTDDSEEERAQRLAELQEQLKAVHEQLAALSQPQQNKPKKKEKDKKEKKKEKHKRKEEVEENKKSKAKEPPPKKTKKNNSSNSNVSRKEPAPMKSKPPPTYESEEEDKCKPMSYEEKRQLSLDINLPGEKLGRVVHIIQSREPSLKNSNPDEIEIDFETLKPSTLRELERYVTSCLRKKRKPQAEICVDVIAGSSKMKGFSSSESESSSESSSSDSEDSETEMAP
modifications: left off: small tags and cut ends
notes: BRD4 ET domain containing fragment (BRD4 444-722) with N-terminal SV40 NLS, FLAG-tagged, tet-inducibly expressed

Columns and labels:
797TRex cells [1] = test: differentiation of 797TRex cells on induced expression of construct (involucrin immunoblot, H&E, IHC); type: cell-based, human; settings: induced expression for 120 h
Source text: BRD4 ET domain containing fragment (BRD4 444-722) was cloned into pcDNA5 FRT/TO-FLAG (Invitrogen) with an N-terminal SV40 NLS sequence to generate pcDNA5 FRT/TO-Flag-NLS-BRD4-ET (p6894). MSCV-CMV-Flag-HA-NSD3 (p6351) has been described previously (8). To make tetracycline-inducible N- and C-terminal BioTAP-tagged constructs, the inventors transferred the gateway destination cassette from pHAGE-TRE (gift of Steven Elledge) to the pcDNA5 frt/to mammalian expression vector with N-terminal BioTAP tandem tag to make pcDNA5 frt/to-DEST-NBioTAP. NSD3-NUT was constructed by fusion PCR into pDONR223, then transferred into the pcDNA5 frt/to-DEST-NBioTAP vector by gateway cloning. Full length NSD3, NSD3Tr encoding amino acids 1-569 of NSD3, full length NUT, BRD4-NUT (derived from pcDNA5 frt/to FLAG-BRD4-NUT (17)) were PCR-cloned into pDONR223, then transferred by gateway cloning into the pHAGE-P CMVt N-HA GAW expression vector derived from the PHAGE lentiviral vector (52).
NMC cell lines, TC-797 (15) 10-15 (6), 8645(17), 293T, U205, and C33A cells were maintained as monolayer cultures in Dulbecco Modified Eagle medium (DMEM) (Invitrogen) supplemented with 10% (v/v) Fetal Bovine Serum (FBS, SH3008803, Hyclone) and 1% pen-strep (GIBCO/Invitrogen). […]

BRD4-NUT foci = molecular target: T1, BRD4-NUT foci (Homo sapiens, UniProt O60885+Q86Y26); test: immunofluorescence co-localization in 797TRex cells; type: cell-based; settings: HA-tagged, induced 24 h
T1 construct: composed of the N-terminal of BRD4 (amino acids 1-720 out of 1372); endogenous in cells; host or cells: 797TRex cells (tet-inducible derivative of the BRD4-NUT-positive NMC line TC-797)
Method: Immunofluorescence on TC-797 cells was performed as described (55) and nuclei were counterstained with ProLong® Gold antifade reagent with 4′,6-diamidino-2-phenylindole (DAPI) (Life Technologies). Primary antibodies used were anti-NUT (1:1000, rabbit monoclonal clone C52, Cell Signaling Technology), and anti-HA (1:500, mouse monoclonal, Sigma-Aldrich). Secondary antibodies included goat anti-rabbit Alexa Fluor 594 and goat anti-mouse Alexa Fluor 488 (1:1000, Life Technologies, Grand Island, N.Y.). Photos were taken on a Nikon Eclipse E600 fluorescent microscope (Melville, N.Y.) using a Spot RTSlider camera (Diagnostic Instruments, Inc., Sterling Heights, Mich.), and Spot Advanced software (Diagnostic Instruments, Inc.).

BRD4 = molecular target: T2, BRD4 (Homo sapiens, UniProt O60885); test: anti-HA co-immunoprecipitation in C33A-6TR cells; type: binding; settings: HA-tagged construct, C33A cervical carcinoma cells
T2 construct: endogenous in cells; host or cells: C33A-6TR (tet-repressor-positive C33A cervical carcinoma cells)
Method: For co-immunoprecipitation experiments of HA-tagged proteins, C33A-6TR cells stably expressing HA-tagged constructs under a Tet-inducible promoter were used. Protein extracts were prepared 24 h after transfection or induction with Doxycycline (1 μg/ml). Cells were lysed in lysis buffer (50 mM Tris-HCl [pH 7.5], 150 mM NaCl, 0.5% Nonidet P-40) with freshly added protease inhibitors (Roche Complete, EDTA free protease inhibitor cocktail, Roche, Indianapolis, Ind.). Extracts were adjusted for protein concentration and 10% of extracts were used as Input Immunoprecipitations were performed using 15 μl of HA-resin (Sigma A2095). Extracts were incubated overnight at 4° C., and precipitated proteins were detected by Western blot analysis.

797TRex cells [2] = test: luminescent cell viability assay (CellTiter-Glo), 797TRex; type: cell-based, human; settings: induced ET domain expression for 120 h
Method: (§1) Cells were plated at a density of 3000 per well in a 96-well plate, and CellTiter-Glo (Promega, Madison, Wis.) was used to determine cell viability as a measure of ATP content according to the manufacturer's instructions.

U2OS cells = test: luminescent cell viability assay (CellTiter-Glo), U2OS; type: cell-based; settings: induced ET domain expression for 120 h
Method: as §1

293T cells = test: luminescent cell viability assay (CellTiter-Glo), 293T; type: cell-based; settings: induced ET domain expression for 120 h
Method: as §1

Molecule | differentiation (morphology, involucrin) (797TRex cells [1]) | co-localization with BRD4-NUT foci (BRD4-NUT foci) | co-immunoprecipitation of BRD4 (BRD4) | proliferation rate (cell viability, CellTiter-Glo) (797TRex cells [2]) | growth (cell viability, CellTiter-Glo) (U2OS cells) | growth (cell viability, CellTiter-Glo) (293T cells)
B1 | found to induce differentiation | co-localized with BRD4-NUT foci | co-immunoprecipitated BRD4 |  |  | 
B2 | inducing differentiation morphologically and immunophenotypically |  |  | negatively affected the proliferation rate | unaffected | unaffected

Source: patent US20170007595A1, “NSD3 INHIBITORS FOR TREATMENT OF CANCERS” (THE BRIGHAM AND WOMEN'S HOSPITAL, INC., priority 2014, published 2017)
